Results: the DeepSol protein solubility set

Assay: soluble on expression in E. coli; label from the status in PepcDB or PDB records

Sequence | soluble on expression in E. coli
MGSDKIHHHHHHMKPPIQLPLGVRLRDDATFINYYPGANAAALGYVERLCEADAGWTESLIYLWGKQGVGRSHLLQAATHRFQQRGEPAVYLPLAQLLDRGVELLDYLAQYELVCIDDLHVIAGKADWEEAMFHLFNRLRDSGRRLLLAASASPRELPIKLPDLKSRLTLALVFQMRGLSDEDKLRALQLRASRRGLHLTDEVGHFILTRGARSMSALFDLLERLDQASLQAQRKLTIPFLKETLGW | not soluble
MGSDKIHHHHHHMKRINRFAVQIDVEGRTELAHLHDPGRLLEIVYPGNEVLVRRTDGPKLKWRIEFGKINGRYVLIDSGLHSDIARRFLPEGAVPEVRVGRKRIDFRYGDDYIEVKGCTLMANGIAMFPDAPTKRGLEHLKTLETLASSGYRSHVMMIITRDDVRCFYPNFETDPKFAEAFLRLVPAYVKAHFLTFGFDGLYLRYAGSIGLCADVGHGTNGRL | not soluble
MGSDKIHHHHHHMKSVSVRSCKTYNYEEVKLSIEKNLEDIGGIDKFVKKGSKVLIKPNLLMKKKPEEATTTHPMVVKVVCEKLLELNCDITIADSPGGPYNQSSLKSIYKASGIEEVANELGIKLNYDVSDVKIHSEKAHVLKYMDIIKPIVDSDYIINLCKLKTHIMATFTGGTKNLYGCIAGLKKAEIHYRFPTEELFCENVLLDICDYIKPTLTIMDGIVGMEGDGPSAGTTREIGVLLASQNPYAIDVVACKIISLLPNRVATIRGAIKRGYIQEDFSDIEILGEDIKDLIIKNYKIPNVSKDLRLFSVKLPKFLNEPISKLITPKPVVRFQDCIKCGKCKEACPASTIEIGTKGAIIDLSKCIRCYCCHELCPKKAIDVKRNFVFKYVK | not soluble
MGSDKIHHHHHHMKTAALFVSKEFEEEAIALVEGANYKVTSIYKLPKSPNVKFYIQYDKLQQIKNDEEISTLIIFEQLKPRHFINIRRELKGKEVLDKILLLLEIFALHAGSKEAKMQIELARLKYELPIIKETYTKSKIGEQQGPLGAGTYGVESTIKFYKRRINKLMKELESIKIFKEKSIESNKRNNIPSIGIVGYTNSGKTSLFNSLTGLTQKVDTKLFTTMSPKRYAIPINNRKIMLVDTVGFIRGIPPQIVDAFFVTLSEAKYSDALILVIDSTFSENLLIETLQSSFEILREIGVSGKPILVTLNKIDKINGDLYKKLDLVEKLSKELYSPIFDVIPISALKRTNLELLRDKIYQLATQLS | not soluble
MGSDKIHHHHHHMKTELVQVETEDSIVLHGAFYEAEQGKPAIIIMHGAAMNFYTGLGRFLPEILSEHGFSCLSANNRGHDFGTAPDHDRKPVIGLMRDIFKDCVKDVQALLHFLRSRGYPRVILLGHSQAIPKLLYAQNQLQFPEVQGMILVSPPPSVSKMMRYLTTDNYYERGLFKANELGEMGMYDQLIVLRGRGTMPWIFTVSTFLDFYGPNTPADTEELVKEIYCPMLLIRGSMDFPPVSMELMHNMKQNAAVPESVTIREINEASHFYSGQEKQLGNTILEWLDSY | not soluble
MGSDKIHHHHHHMKTGRNDPCPCGSAKKYKNCCMDAISKQNSALLDDISQVTAMNPNLTHDELDLVLQQKAFAQNNRPIADFCGLSPAQMANWLYAPFNELNCVAISPPDDLSSSPVMRYLEVILDEAMAQNGSFKATSKGNLPTKLVKQASGLLPEFAVAQFSTNISISEYAGSNEDKFNALHYTRILAELSGIIYRKSGSYHVKKAAQKQYQSQGLTAFFLPMLEAAITKYNWGYLDSWEHDAVLSTFWLFMLWRLQSHASVDELIDEVATAFPDLLHQFPADKYRTPQAQLGMGIDSRFLKRFLQFWGFITLDPKRLFAEPREPRKVQIQPLLTQTFKFTI | not soluble
MGSDKIHHHHHHMKTLKGPGIFLAQYIGDQAPFNTLENLAQWAAGLGFKALQIPCNHPHIFNLATAADSQTYCDEVKGLLAQHGLTISELSTHLEGQLVAVHPAYDDAFDDFAPPAYRRNPQARQQWAISAIKQAAKASSRLGLNAHATFSGALAWPYFYPWPPRKEALIQEAFKELGRLWTPILDCFDEHGVDVCYELHPGEDLHDGVTFERFLDVVNHHPRANILYDPSHMHLQQMDYLGFIDRYHARIKAFHVKDAEFTPSSKSGVYGGYQSWAERAGRFRSPGDGQIDFGAIFSKLAQYDYDGWAVLEWECCLKDSNCGAKEGAAFIDRHIIPVAQRAFDDFAATSDDRPLVRKMLGLKEEDAE | not soluble
MGSDKIHHHHHHMKTNTSNQTTPQLATIKLFAMGCHIQISLYTTRLSAQYSQMTIDQQVAFLTSDVQQRLAYWEHIFSRFDDTSELMRLNNRGDQWSEVSSELFEVLQHAIHFVLKTQGLVTPTLLQPLWAAGYKHSFETLPKISMPSLPFTGLSAPSNVQDTTSANHANQQIGRIQLRQLTDGQHQVYLPTGMALDLNGYVKGWCAMQLAEHISRVHDWHIPCLVDMGGDIAIGIPRDPIDKPVTWGVAVAKPYFANSKHVQNDEDVAILKLSSGAVATSGQDYRRWWHDGRWQHHLIHPHDSRPVTSDVLTATVLATDTMTAEVYAKYCLLLGVKVAMAWLNKYHIAALLIDTDNKVMATSAIRPHLLQPNVVKSNVMSI | not soluble
MGSDKIHHHHHHMKTVNVHGFEASSKEEFQVIQSSLVKRIKLISDFKEEDIKLCAGVDLAYWTKGEKQYGVCCIIVIDYNTGEIIEKAYDYGEIEVPYMPGFLAFRELPLVIKTVKKLKNEPDIFMFDGNGYLHYNHMGIATHASFFLNKPTIGVAKSYLKVAGVDFEMPESFEGAFKDIVINEEVYGRVLRTKKDVKPIFVSCGNYIDLETCTKICSKLINNDSRLPITVRLADLETHKRRSELS | not soluble
MGSDKIHHHHHHMKVFDVHKFDMKKEQDFLQVQFNLKNRINLSPTIHPDSINTGAGVDLAYWEQDGEPYGVCCIIVIDADTKEVIEKVHSMGRISVPYVSGFLAFRELPLIIEAAKKLETEPDVFLFDGNGYLHYNHMGVATHAAFFLGKPTIGIAKTYLKIKGCDFVTPEIEVGAYTDIIIDGEVYGRALRTRRDVKPIFLSCGNYIDLDSSYQITMSLINQESRLPIPVRLADLETHVLRTFYQKNHV | not soluble
MGSDKIHHHHHHMKVNLDYLGRLFTENELTEEERQLAEKLPAMRKEKGKLFCQRCNSTILEEWYLPIGAYYCRECLLMKRVRSDQTLYYFPQEDFPKQDVLKWRGQLTPFQEKVSEGLLQVVDKQKPTLVHAVTGAGKTEMIYQVVAKVINAGGAVCLASPRIDVCLELYKRLQQDFSCGIALLHGESEPYFRTPLVVATTHQLLKFYQAFDLLIVDEVDAFPYVDNPMLYHAVKNSVKENGLRIFLTATSTNELDKKVRLGELKRLNLPRRFHGNPLIIPKPIWLSDFNRYLDKNRLSPKLKSYIEKQRKTAYPLLIFASEIKKGEQLAEILQEQFPNEKIGFVSSVTEDRLEQVQAFRDGELTILISTTILERGVTFPCVDVFVVEANHRLFTKSSLIQIGGRVGRSMDRPTGDLLFFHDGLNASIKKAIKEIQMMNKEAGL | not soluble
MGSDKIHHHHHHMKVQFLGAARTVTGSCYVVESGGVRFAVDCGMHQGNHEIEKRNYETDVYSPETIDFFLITHAHIDHTGLLPRMVRDGFTGPVYCTEPTRDLLEIMLQDSANIQEMEAEWQTRKQKRKGRKPVDPLYTFADAARVSRFFENVEYNRPFSPVEGVTVTYKDAGHILGSAFLEIEVCEHGRCSRLIFSGDLGKPNSLIVRDPEAAAAADYLFVESTYGDRNHKDESNSRQELAEAIAYSYRQGEKVIIPAFAVERTQEVLYTLFLLQKEGRMPVDMPIFLDSPLAIRATEIFRKHPRFFDEEMQKLLLSGEDPFAMPSLRLTTKTQESQAINNYTGPAVIISASGMCNAGRIKHHLRHNIWRPGASIVFVGYQAVGTPGRRIVDGARSIRLFGEEIAIQAKVFTIGGFSGHAGQSQILDWVGKFATKEMKVFLVHGEEKAQQALKAILEEKYELSVHSPGYLEEIELEPGEAVVTTGDPQRYQPQLNWDFLLSETEARMMQLRARKGDIEHADWAQQVEIRDRLLELNNEMLGILSEL | not soluble
